We go through 3 molecules from publication PMC11605450, “Azotobacter vinelandii scaffold protein NifU transfers iron to NifQ as part of the iron-molybdenum cofactor biosynthesis pathway for nitrogenase” (The Journal of Biological Chemistry, 2024).

Assay [1] deals with R-NifUS (A. vinelandii NifU, C-terminal Strep-tag, with in vitro reconstituted [Fe-S] clusters) (A. vinelandii) (UniProt P05340).
The target of assay [2] is apo-NifQH (A. vinelandii NifQ, C-terminal 6xHis, without [Fe-S] cluster) (A. vinelandii) (UniProt P11068). As to the kind of experiment: pull-down; apo-NifQH, AS-NifUS and SNifS (10 nmol of each) incubated together 5 min, anaerobic, buffer W (100 mM Tris-HCl pH 8.0, 150 mM NaCl, 10% glycerol); Ni-NTA agarose column, washes with 5 and 20 mM imidazole, elution with 150 mM imidazole; immunoblots.

The target of assay [3] is T1, apo-NifQH (A. vinelandii NifQ, C-terminal 6xHis, without [Fe-S] cluster) (A. vinelandii, UniProt P11068 1-195).
T1 construct: Purified aerobically to destroy the [Fe-S] clusters; source: E. coli BL21 (DE3), purified (Ni-NTA, aerobic conditions); not shown: His6, C-terminal, kept
T1 sequence (looked up): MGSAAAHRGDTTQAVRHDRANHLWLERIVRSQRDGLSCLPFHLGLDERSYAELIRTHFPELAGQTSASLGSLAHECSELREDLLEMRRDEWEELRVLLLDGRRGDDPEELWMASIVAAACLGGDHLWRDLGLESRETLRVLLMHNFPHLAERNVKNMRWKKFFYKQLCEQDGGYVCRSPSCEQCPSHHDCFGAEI
As to the kind of experiment: pull-down; 10 nmol of Strep-tagged bait (AS-NifUS or R-IscUS) immobilised on a Streptactin-XT column in anaerobic buffer A (50 mM Tris-HCl pH 8.0, 100 mM NaCl, 10% glycerol), 10 nmol NifQH loaded onto the charged column, washed, eluted with 50 mM biotin. Conditions: both partners purified.

Chain of R-NifUS (A. vinelandii NifU, C-terminal Strep-tag, with in vitro reconstituted [Fe-S] clusters) (A. vinelandii) (P05340 whole entry): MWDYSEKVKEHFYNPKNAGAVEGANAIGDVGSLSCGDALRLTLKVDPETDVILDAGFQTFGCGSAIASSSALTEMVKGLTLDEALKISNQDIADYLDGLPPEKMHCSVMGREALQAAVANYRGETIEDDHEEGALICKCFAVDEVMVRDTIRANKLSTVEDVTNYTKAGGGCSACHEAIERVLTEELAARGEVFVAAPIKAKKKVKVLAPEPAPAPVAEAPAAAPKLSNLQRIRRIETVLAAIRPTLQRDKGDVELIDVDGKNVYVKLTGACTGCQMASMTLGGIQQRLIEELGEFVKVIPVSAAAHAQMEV

Regarding “apo-NifQH (A. vinelandii NifQ, C-terminal 6xHis, without [Fe-S] cluster) (from UniProt P11068 1-195) (natural protein)”, the iron content per monomer of NifQH in the flowthrough of a Strep-tactin column after 5 min incubation of apo-NifQH with R-NifUS (Fe per NifQH monomer (molar ratio)) in assay [1] was found to be 1.

On to “AS-NifUS (as-isolated A. vinelandii NifU, C-terminal Strep-tag) (from UniProt P05340 1-312) (natural protein)”, for which, in assay [2], the percent of the total protein co-eluted was 10%.

B1: R-IscUS (A. vinelandii IscU, Strep-tag, with in vitro reconstituted [Fe-S] clusters) (natural protein, UniProt O31270 1-128, looked up)
chain: MAYSDKVIDHYENPRNVGKLDAQDPDVGTGMVGAPACGDVMRLQIKVNEQGIIEDAKFKTYGCGSAIASSSLATEWMKGRTLEEAETIKNTQIAEELALPPVKIHCSVLAEDAIKAAVRDYKHKKGLV
notes: also called R-SIscU; source: E. coli BL21 (DE3), purified (Strep-Tactin XT, anaerobic), [Fe-S] clusters reconstituted in vitro; not shown: Strep-tag, C-terminal, kept
Regarding B1, in assay [3], the binding result is “binds”.
